Measurements reported in IntAct's records for PubMed 22820947.

B1: ATP-dependent helicase SGS1 (Saccharomyces cerevisiae), P35187 (parent)
chain: MVTKPSHNLRREHKWLKETATLQEDKDFVFQAIQKHIANKRPKTNSPPTTPSKDECGPGTTNFITSIPASGPTNTATKQHEVMQTLSNDTEWLSYTATSNQYADVPMVDIPASTSVVSNPRTPNGSKTHNFNTFRPHMASSLVENDSSRNLGSRNNNKSVIDNSSIGKQLENDIKLEVIRLQGSLIMALKEQSKLLLQKCSIIESTSLSEDAKRLQLSRDIRPQLSNMSIRIDSLEKEIIKAKKDGMSKDQSKGRSQVSSQDDNIISSILPSPLEYNTSSRNSNLTSTTATTVTKALAITGAKQNITNNTGKNSNNDSNNDDLIQVLDDEDDIDCDPPVILKEGAPHSPAFPHLHMTSEEQDELTRRRNMRSREPVNYRIPDRDDPFDYVMGKSLRDDYPDVEREEDELTMEAEDDAHSSYMTTRDEEKEENELLNQSDFDFVVNDDLDPTQDTDYHDNMDVSANIQESSQEGDTRSTITLSQNKNVQVILSSPTAQSVPSNGQNQIGVEHIDLLEDDLEKDAILDDSMSFSFGRQHMPMSHSDLELIDSEKENEDFEEDNNNNGIEYLSDSDLERFDEERENRTQVADIQELDNDLKIITERKLTGDNEHPPPSWSPKIKREKSSVSQKDEEDDFDDDFSLSDIVSKSNLSSKTNGPTYPWSDEVLYRLHEVFKLPGFRPNQLEAVNATLQGKDVFVLMPTGGGKSLCYQLPAVVKSGKTHGTTIVISPLISLMQDQVEHLLNKNIKASMFSSRGTAEQRRQTFNLFINGLLDLVYISPEMISASEQCKRAISRLYADGKLARIVVDEAHCVSNWGHDFRPDYKELKFFKREYPDIPMIALTATASEQVRMDIIHNLELKEPVFLKQSFNRTNLYYEVNKKTKNTIFEICDAVKSRFKNQTGIIYCHSKKSCEQTSAQMQRNGIKCAYYHAGMEPDERLSVQKAWQADEIQVICATVAFGMGIDKPDVRFVYHFTVPRTLEGYYQETGRAGRDGNYSYCITYFSFRDIRTMQTMIQKDKNLDRENKEKHLNKLQQVMAYCDNVTDCRRKLVLSYFNEDFDSKLCHKNCDNCRNSANVINEERDVTEPAKKIVKLVESIQNERVTIIYCQDVFKGSRSSKIVQANHDTLEEHGIGKSMQKSEIERIFFHLITIRVLQEYSIMNNSGFASSYVKVGPNAKKLLTGKMEIKMQFTISAPNSRPSTSSSFQANEDNIPVIAQKSTTIGGNVAANPPRFISAKEHLRSYTYGGSTMGSSHPITLKNTSDLRSTQELNNLRMTYERLRELSLNLGNRMVPPVGNFMPDSILKKMAAILPMNDSAFATLGTVEDKYRRRFKYFKATIADLSKKRSSEDHEKYDTILNDEFVNRAAASSNGIAQSTGTKSKFFGANLNEAKENEQIINQIRQSQLPKNTTSSKSGTRSISKSSKKSANGRRGFRNYRGHYRGRK

Variants of: B1
Settings: with rad53_yeast RAD53, P22216
Chain of rad53_yeast RAD53, P22216 (P22216 whole entry): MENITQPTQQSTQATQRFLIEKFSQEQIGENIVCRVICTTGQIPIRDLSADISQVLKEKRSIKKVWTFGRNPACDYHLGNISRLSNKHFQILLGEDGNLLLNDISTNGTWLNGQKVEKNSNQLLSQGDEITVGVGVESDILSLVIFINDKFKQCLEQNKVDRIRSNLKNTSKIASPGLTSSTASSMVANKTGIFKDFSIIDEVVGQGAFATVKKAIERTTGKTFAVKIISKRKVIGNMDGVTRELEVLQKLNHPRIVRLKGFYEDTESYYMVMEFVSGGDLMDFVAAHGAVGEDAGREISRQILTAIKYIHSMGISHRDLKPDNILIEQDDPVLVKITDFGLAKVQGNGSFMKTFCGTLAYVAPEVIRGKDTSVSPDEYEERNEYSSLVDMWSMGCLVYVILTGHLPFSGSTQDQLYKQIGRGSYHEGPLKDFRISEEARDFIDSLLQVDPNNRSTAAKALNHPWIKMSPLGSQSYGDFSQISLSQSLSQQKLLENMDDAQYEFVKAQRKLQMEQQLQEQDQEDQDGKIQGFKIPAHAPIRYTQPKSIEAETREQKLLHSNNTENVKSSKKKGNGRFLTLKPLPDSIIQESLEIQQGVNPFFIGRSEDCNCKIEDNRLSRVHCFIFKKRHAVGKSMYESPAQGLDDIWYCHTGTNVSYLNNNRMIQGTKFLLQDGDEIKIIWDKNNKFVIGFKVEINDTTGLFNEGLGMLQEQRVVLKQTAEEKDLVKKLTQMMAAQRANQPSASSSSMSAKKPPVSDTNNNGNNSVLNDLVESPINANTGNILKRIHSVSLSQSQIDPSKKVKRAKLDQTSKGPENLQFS

Effect of a mutation on the interaction, decreasing interaction:
S482A
S470A
T451A
T585A
